Where a chain is given by its changes, count along the chain named. “Also recorded” adds a separate entry of the source.

In one assay the target is T1, integrin αvβ3 (Homo sapiens, UniProt P05106+P06756).
T1 construct: using the soluble αv and β3 expression constructs provided by Tim Springer; made in house; host or cells: CHO K1
Briefly: Soluble integrin binding assay (ELISA-type), soluble αvβ3 on immobilized FGF. Conditions: for effect of the mutation on binding of soluble αvβ3 to FGF-1: mutant coated to plate; for αvβ3 binding: phenotype of FGF-1 mutants, Table 2. Here is the method: Wells of 96-well microtiter plates were coated with 10 μg/ml FGF-1 or FGF-2 and remaining protein binding sites were blocked with 1 mg/ml BSA. Recombinant soluble αvβ3 (50 μl/well at 5 μg/ml in Hepes-Tyrode buffer supplemented with 1 mM MnCl2) was added to wells and incubated for 1 h at room temperature. Soluble αvβ3 was incubated with 10 μg/ml 7E3 (white bar) or mouse IgG (black bar) for 10 min on ice prior to adding to the wells. BSA (circle) was used as a negative control. Data is shown as means+/−SD of triplicate experiments.
FGF-1 (10 μg/m) was heat-treated at indicated temperature for 10 min prior to immobilization. Binding of soluble αvβ3 was determined as described in FIG. 1. Data is shown as percent binding+/−SD of triplicate experiments.
Amino acid residues in the integrin-binding site or in the FGFR-binding site were mutated individually or in groups. Wild-type (diamond), R50E (open square), N33A (closed square), 4xE (circle), 3xA (triangle) were coated to a plastic plate various concentration as indicated and the binding of soluble αvβ3 was determined as described in FIG. 2. BSA (cross) was used as a negative control. […] “4xE” represents the K127E/K128E/K133E/R134E mutant. “3xA” represents the E102A/Y109A/Q110A mutant.
Binding assays were performed as previously described (Takagi et al., 2001). Native or heat-denatured FGF-1 in 0.1 M carbonate buffer, pH 9.4, were incubated in a polystyrene 96-well non-tissue culture plates surface overnight at 4° C. Unbound FGF-1 was removed, and 200 μl of 0.1% bovine serum albumin in PBS was added and incubated for 60 min at room temperature. The wells were washed with PBS and soluble integrin αvβ3 in 50 μl in Hepes-Tyrode buffer supplemented with 1 mM Mn^2+ were added to the wells and incubated at room temperature for 60 min. After non-bound soluble integrin were removed by rinsing the wells with the same buffer. Horseradish peroxidase (HRP) conjugated anti His-tag mouse IgG was added to well and incubated 60 min. Non-bound antibodies were removed by rinsing the wells with the same buffer, bound integrins were quantified by measuring the absorbance of 450 nm developed from adding the substrate (3,3′,5,5′-tetramethylbenzidine) of HRP unbound protein was aspirated, and the wells were washed with PBS three times.
(In an ELISA, binding on a coated surface is turned into a signal by an enzyme label.)

In assay [1] the test system is Balb 3T3 cells. As to the kind of experiment: Scratch wound healing assay. It is filed as cell-based, mouse. Conditions: for Wound healing: phenotype of FGF-1 mutants, Table 2; for effect on migration of Balb3T3 cells in scratch wound healing assays: with 5 μg/ml heparin, 24 h. Here is the method: Confluent serum-starved Balb 3T3 cells were scratched. After washing with serum-free medium, cells were incubated in DMEM containing 5 μg/ml heparin and 5 ng/ml wild-type or mutant FGF-1s for 24 h at 37° C. Controls contain medium alone (none) or medium containing 10% fetal calf serum (FCS).
Balb 3T3 cells were plated into 6-well cell culture plate. Cells were allowed to grow in DMEM containing 10% fetal calf serum for overnight, and then cells were washed with serum-free medium and starved for 24 h. A scratch was made across the cell layer using a pipette tip. After washing with serum-free medium twice, DMEM containing 10 ng/ml wild type or mutant FGF-1 together with 5 μg/ml heparin were added to cells. Plates were photographed at 0, 6, 12, and 24 h.

Assay [2] concerns Balb 3T3 cells. As to the kind of experiment: DNA synthesis by BrdU incorporation. It is filed as cell-based, mouse. Conditions: for effect of the mutation on FGF-1 induced BrdU incorporation: 5 ng/ml, 5 μg/ml heparin, 24 h; for DNA synthesis: phenotype of FGF-1 mutants, Table 2. Here is the method:
Balb 3T3 cells were plated on cover slips in 6-well culture plates, serum starved (DMEM, 0.4% fetal calf serum) for 48 h, and stimulated with 5 ng/ml wild-type and mutant FGF-1s in the presence of 5 μg/ml heparin for 24 h. BrdU was added to the medium for the last 6 h of the incubation. Cells were fixed and incubated with anti BrdU antibody. BrdU incorporated cells were stained with DAB. The mean value of BrdU positive cells from wild type-treated culture was set to 100%, and the corresponding results from mutant-treated cultures were scaled accordingly. Results are shown as means±S.D. Asterisks indicate significant differences (p<0.05) compared with wild type treatment.
DNA synthesis was measured by BrdU incorporation. Balb 3T3 cells were plated on sterile cover slips in 6-well culture plates and serum starved in DMEM supplemented with 0.4% fetal calf serum for 48 h, and stimulated with 5 ng/ml wild type and mutant FGF-1s for 24 h in the presence and absence of 5 μg/ml heparin. BrdU (10 μg/ml) was added to the medium for the last 6 h of the incubation. Cells were then fixed with 70% ethanol and incubated with 2N HCI. After the medium was neutralized with 0.1 M borate buffer (pH 8.5), the cells were incubated with anti-BrdU antibody (BD PharMingen, San Diego, Calif.). BrdU incorporated cells were stained with HRP conjugated secondary antibody (Biorad) and metal enhanced diaminobenzidine substrate kit (Pierce, Rockford, Ill.). Diaminobenzidine positive and negative cells were counted from the digital images of three independent fields.

In assay [3] the test system is Balb 3T3 cells. As to the kind of experiment: Chemotaxis assay (Transwell). Conditions: for effect of the mutation on FGF-1-induced chemotaxis: 5 ng/ml, 24 h; for Chemotaxis: phenotype of FGF-1 mutants, Table 2. The assay is classed as cell-based, mouse. Here is the method: The bottom of the polycarbonate filter of the Transwell apparatus was coated with 10 μg/ml of fibronectin. The lower chamber contained 600 μI of serum-free DMEM containing 5 ng/ml wild-type or mutants FGF-1. Balb 3T3 cells (10^5 cells/filter) were plated on filter and incubated 37° C. for 24 h, and cells were stained with crystal violet. Cells that migrated to the bottom side of the membrane were counted. Results are expressed as means of the number of migrated cells in 2 fields.
A polycarbonate filter of 8 μm pore size of the Transwell insert was coated with 10 μg/ml of fibronectin (Sigma) overnight at 4° C. After washing, the insert was placed into a 24-well cell culture plate, and the lower portion of the plate was filled with 600 μl of serum-free DMEM containing 5 ng/ml wild type or mutant FGF-1. Balb 3T3 cells (10^5 cells/filter) were plated on filter and incubated 37° C. for 24 h, and cells were visualized by crystal violet staining (0.5% crystal violet in 50 mM Borate, pH 9.0, and 2% ethanol). The uncoated side of each filter was wiped with a cotton swab to remove cells that had not migrated through the filter. Migrated cells were counted from the digital images of stained cells. Determining the mean number of cells counted per field. Results are expressed as means±SD of the relative cell number with non-stimulated cells set as 100).

The next assay relates to FRS2α. Briefly: FRS2 phosphorylation, western blot. The following applies: mouse fibroblasts. The assay is classed as cell-based. Here is the method:
The same cell lysates as described above were analyzed by western blotting with anti-phospho FRS2 or anti-FRS2, where; 1: Wild type; 2: R50E; 3: 4xE; 4: 3xA; 5: None; and 6: FBS.
This experiment tested how the FGF1 mutations affect phosphorylation of FRS2α.

T1 sequence (P06756 31-992 limits assumed): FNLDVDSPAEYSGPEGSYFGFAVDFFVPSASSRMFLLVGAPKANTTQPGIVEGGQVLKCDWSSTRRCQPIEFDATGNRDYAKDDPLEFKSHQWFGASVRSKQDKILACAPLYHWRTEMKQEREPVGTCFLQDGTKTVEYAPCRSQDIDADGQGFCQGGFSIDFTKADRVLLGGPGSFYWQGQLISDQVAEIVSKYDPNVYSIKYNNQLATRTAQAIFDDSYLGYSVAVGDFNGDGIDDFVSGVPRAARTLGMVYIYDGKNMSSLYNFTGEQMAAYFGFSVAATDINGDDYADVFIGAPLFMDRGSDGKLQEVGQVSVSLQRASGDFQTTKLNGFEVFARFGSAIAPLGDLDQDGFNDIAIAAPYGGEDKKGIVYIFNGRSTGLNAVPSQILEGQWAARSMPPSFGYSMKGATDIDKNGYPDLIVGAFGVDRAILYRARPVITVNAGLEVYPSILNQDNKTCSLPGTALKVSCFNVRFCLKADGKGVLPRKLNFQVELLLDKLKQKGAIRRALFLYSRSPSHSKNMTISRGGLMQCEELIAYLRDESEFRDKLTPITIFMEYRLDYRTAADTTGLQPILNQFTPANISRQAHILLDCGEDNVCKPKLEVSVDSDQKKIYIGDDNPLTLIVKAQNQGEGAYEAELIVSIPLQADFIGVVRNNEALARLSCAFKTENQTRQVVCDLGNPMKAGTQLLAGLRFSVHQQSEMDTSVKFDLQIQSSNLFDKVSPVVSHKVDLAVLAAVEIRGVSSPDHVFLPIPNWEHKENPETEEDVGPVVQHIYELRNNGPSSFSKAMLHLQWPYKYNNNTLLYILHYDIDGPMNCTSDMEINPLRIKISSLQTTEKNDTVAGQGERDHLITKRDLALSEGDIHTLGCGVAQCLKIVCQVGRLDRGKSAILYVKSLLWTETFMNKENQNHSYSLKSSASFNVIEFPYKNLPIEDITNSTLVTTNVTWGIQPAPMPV
T1 sequence (P05106 27-718 limits assumed): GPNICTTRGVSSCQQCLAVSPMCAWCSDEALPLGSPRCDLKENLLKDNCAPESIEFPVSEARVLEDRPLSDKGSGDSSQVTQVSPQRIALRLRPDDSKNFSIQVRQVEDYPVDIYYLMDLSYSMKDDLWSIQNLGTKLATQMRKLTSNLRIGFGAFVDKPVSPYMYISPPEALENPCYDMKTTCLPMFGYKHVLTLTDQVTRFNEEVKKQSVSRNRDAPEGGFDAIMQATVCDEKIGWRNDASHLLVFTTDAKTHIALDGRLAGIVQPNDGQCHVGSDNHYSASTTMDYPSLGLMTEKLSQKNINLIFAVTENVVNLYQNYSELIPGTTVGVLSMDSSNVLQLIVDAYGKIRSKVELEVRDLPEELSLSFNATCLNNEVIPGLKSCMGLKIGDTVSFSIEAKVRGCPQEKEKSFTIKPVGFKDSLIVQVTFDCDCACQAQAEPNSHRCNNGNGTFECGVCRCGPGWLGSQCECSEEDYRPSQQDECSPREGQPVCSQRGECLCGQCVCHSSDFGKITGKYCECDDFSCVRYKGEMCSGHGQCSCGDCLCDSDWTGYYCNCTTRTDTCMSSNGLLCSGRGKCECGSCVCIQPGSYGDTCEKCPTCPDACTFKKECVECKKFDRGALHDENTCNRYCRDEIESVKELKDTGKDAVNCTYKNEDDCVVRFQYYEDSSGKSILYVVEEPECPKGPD

In the case of “R50E: FGF-1 mutant with the Arg-50 to Glu (R50E) mutation”, in the assay with integrin αvβ3, the “effect of the mutation on binding of soluble αvβ3 to FGF-1” value (shortened to “effect of the mutation … to FGF-1”) was “blocked the binding; also recorded: effectively blocked” and the αvβ3 binding result is “Low”. Besides, in the assay with Balb 3T3 cells [1], the Wound healing entry is “Low” and the “effect on migration of Balb3T3 cells in scratch wound healing assays” value (“effect on migration of Balb3T3 cells” for short) is given as “effectively blocked”. Besides, in the assay on Balb 3T3 cells [2], the “effect of the mutation on FGF-1 induced BrdU incorporation” value is “significantly blocked” and the DNA synthesis entry is listed as “Low”. For the same molecule, in the assay on Balb 3T3 cells [3], the “effect of the mutation on FGF-1-induced chemotaxis” value is listed as “blocked” and the Chemotaxis entry is recorded as “Low”. Also, the FRS2α phosphorylation entry in the assay on FRS2α is on record as “abolished”.
Turning to “Wild type: human FGF-1 (acidic FGF), wild type, expressed in E. coli”, the “binding of soluble αvβ3 to the immobilized protein” value in the assay with integrin αvβ3 (coated at 10 μg/ml, soluble αvβ3 5 μg/ml, 1 mM MnCl2) is “bound”. The “binding of soluble αvβ3 to heat-denatured protein” value in the assay with integrin αvβ3 (heat-denatured, heat-treated 10 min before immobilization) was “did not bind”. Also, the αvβ3 binding entry in the assay with integrin αvβ3 is “Normal”. In the assay with Balb 3T3 cells [1], the Wound healing entry is on record as “Normal”. Further, the DNA synthesis entry in the assay with Balb 3T3 cells [2] is given as “Normal”. Also, in the assay on Balb 3T3 cells [3], the Chemotaxis entry is “Normal”. The FRS2α phosphorylation entry in the assay on FRS2α is recorded as “induced”.

B1: 4xE: FGF-1 mutant, Lys127/Lys128/Lys133/Arg134 simultaneously to Glu (protein)
chain: FNLPPGNYKKPKLLYCSNGGHFLRILPDGTVDGTRDRSDQHIQLQLSAESVGEVYIKSTETGQYLAMDTDGLLYGSQTPNEECLFLERLEENHYNTYISKKHAEKNWFVGLEENGSCEEGPRTHYGQKAILFLPLPVSSD
In the case of B1, in the assay with integrin αvβ3, the “effect of the mutation … to FGF-1” value was “effectively blocked” and the αvβ3 binding entry is given as “Low”. Besides, in the assay on Balb 3T3 cells [1], the Wound healing result is given as “Low” and the “effect on migration of Balb3T3 cells” value is reported as “effectively blocked”. In the assay on Balb 3T3 cells [2], the “effect of the mutation on FGF-1 induced BrdU incorporation” value is listed as “significantly blocked” and the DNA synthesis entry is listed as “Low”. Also, in the assay with Balb 3T3 cells [3], the “effect of the mutation on FGF-1-induced chemotaxis” value was “blocked” and the Chemotaxis entry was “Low”. Further, in the assay with FRS2α, the FRS2α phosphorylation result is “abolished”.

B2: 3xA: FGF-1 mutant, three residues in the FGFR binding site (Glu102/Tyr109/Asn110) to Ala (protein)
chain: B1 chain with E87A, Y94A, N95A, E112K, E113K, E118K, E119R
On to B2, for which, in the assay with integrin αvβ3, the “effect of the mutation … to FGF-1” value is given as “did not affect” and the αvβ3 binding result is “Normal”. Moreover, in the assay with Balb 3T3 cells [1], the Wound healing result is “Low” and the “effect on migration of Balb3T3 cells” value is reported as “effectively blocked”. Moreover, in the assay with Balb 3T3 cells [2], the “effect of the mutation on FGF-1 induced BrdU incorporation” value is “also blocked” and the DNA synthesis entry is “Low”. In addition, the Chemotaxis entry with Balb 3T3 cells [3] is on record as “Low”. The FRS2α phosphorylation entry with FRS2α is “abolished”.

For the origin of these results see patent US8796209B2, “Compositions and methods related to anti-FGF agents” (The Regents of the University of California, priority 2005, dated 2014).
